The values below are quoted from earlier work in publication PMC7654312.

In general, pKa refers to the pH at which an ionisable group is half protonated.

The target of data set [1] is Lys210 (UniProt position 210, VVKVAKLGISE).
Data set [2] relates to Lys210.

Regarding “Retro-aldolase RA95.0 (computationally designed) (synthetic construct (design on an indole-3-glycerol phosphate synthase TIM-barrel scaffold))”, the pKa in data set [1] is reported as 8.1. With “Retro-aldolase RA95.5 (evolved variant of RA95.0) (synthetic construct (design on an indole-3-glycerol phosphate synthase TIM-barrel scaffold); T83K)”, in data set [2], the pKa is on record as 7.6.
